# Key:
# [1] = system: AncSZ; assay: phosphorylation enrichment, bacterial display (enrichment ratio); higher = better substrate or ligand; peptides without Tyr show the background
# [2] = target: EPHB1 (UniProt P54762); assay: as above
# [3] = target: EPHB2 (UniProt P29323); assay: as above
# [4] = target: FGFR1 (UniProt P11362); assay: as above
# [5] = target: FGFR3 (UniProt P22607); assay: as above
# [6] = system: Fer (mouse); assay: as above
# [7] = target: Fes (UniProt P07332); assay: as above
# [8] = target: Fyn (UniProt P06241); assay: as above
# [9] = target: Hck (UniProt P08631); assay: as above
# [10] = target: Jak2 (UniProt O60674); assay: as above
# [11] = target: MERTK (UniProt Q12866); assay: as above
# [12] = system: c-Abl (mouse); assay: as above
# [13] = system: c-Src; assay: as above
# [14] = target: Grb2 SH2 (UniProt P62993); assay: SH2 binding enrichment of the phosphorylated peptide, bacterial display (enrichment ratio); higher = better substrate or ligand; peptides without Tyr show the background
# [15] = target: SHP2-C SH2; assay: as above
# [16] = target: c-Src SH2; assay: as above
# 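For SH2 binding enrichment of the phosphorylated peptide, bacterial display in this document: peptide library displayed on the E. coli surface as eCPX fusions, selected cells deep-sequenced, score is each peptide's frequency after selection divided by its frequency in the input.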
# 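For phosphorylation enrichment, bacterial display in this document: 11-residue human phosphosite peptides and single-mutation variants displayed on the E. coli surface, counted by deep sequencing, each peptide's frequency after selection divided by its frequency in the unselected input library; frequency after pTyr selection over input frequency; kinase dosed for 20-30% of maximal phosphorylation in three min.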
# Chain of FGFR1 (P11362 whole entry, looked up): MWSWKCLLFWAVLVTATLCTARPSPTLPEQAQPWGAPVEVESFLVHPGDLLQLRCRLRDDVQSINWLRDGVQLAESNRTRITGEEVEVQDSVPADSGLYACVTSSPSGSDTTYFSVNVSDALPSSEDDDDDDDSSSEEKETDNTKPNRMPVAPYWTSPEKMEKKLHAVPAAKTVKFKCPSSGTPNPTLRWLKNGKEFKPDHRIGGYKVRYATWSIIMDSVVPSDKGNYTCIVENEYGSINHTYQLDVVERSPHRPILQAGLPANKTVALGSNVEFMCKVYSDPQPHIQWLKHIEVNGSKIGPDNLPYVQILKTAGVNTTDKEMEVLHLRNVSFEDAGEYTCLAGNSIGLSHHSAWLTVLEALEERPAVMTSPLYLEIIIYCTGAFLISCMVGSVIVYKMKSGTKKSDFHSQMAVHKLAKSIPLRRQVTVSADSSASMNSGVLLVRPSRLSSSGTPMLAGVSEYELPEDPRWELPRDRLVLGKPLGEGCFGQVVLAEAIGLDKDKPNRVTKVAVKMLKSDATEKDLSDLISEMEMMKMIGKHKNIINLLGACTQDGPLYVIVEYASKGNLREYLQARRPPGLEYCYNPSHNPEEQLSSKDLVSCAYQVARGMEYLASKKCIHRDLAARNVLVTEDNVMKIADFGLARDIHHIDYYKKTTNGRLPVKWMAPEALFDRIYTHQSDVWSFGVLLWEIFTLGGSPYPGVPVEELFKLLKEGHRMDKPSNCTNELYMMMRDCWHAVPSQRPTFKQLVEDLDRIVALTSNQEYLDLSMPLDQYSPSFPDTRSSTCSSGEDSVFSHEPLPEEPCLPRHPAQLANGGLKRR
# Chain of Fyn (P06241 whole entry, looked up): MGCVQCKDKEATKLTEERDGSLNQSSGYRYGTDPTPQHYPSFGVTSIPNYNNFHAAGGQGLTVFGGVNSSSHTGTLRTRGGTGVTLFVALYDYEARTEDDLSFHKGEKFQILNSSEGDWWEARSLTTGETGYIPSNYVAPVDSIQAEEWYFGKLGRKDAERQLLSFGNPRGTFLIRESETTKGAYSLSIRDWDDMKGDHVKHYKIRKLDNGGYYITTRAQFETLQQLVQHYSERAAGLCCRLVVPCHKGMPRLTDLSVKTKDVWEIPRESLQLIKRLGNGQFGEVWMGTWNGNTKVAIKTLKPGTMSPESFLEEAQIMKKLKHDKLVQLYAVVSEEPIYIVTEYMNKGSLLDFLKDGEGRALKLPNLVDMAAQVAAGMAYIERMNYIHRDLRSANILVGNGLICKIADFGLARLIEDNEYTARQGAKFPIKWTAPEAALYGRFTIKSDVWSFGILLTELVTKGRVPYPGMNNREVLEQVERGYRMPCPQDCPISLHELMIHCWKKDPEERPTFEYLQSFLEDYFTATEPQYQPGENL
# Chain of EPHB2 (P29323 whole entry, looked up): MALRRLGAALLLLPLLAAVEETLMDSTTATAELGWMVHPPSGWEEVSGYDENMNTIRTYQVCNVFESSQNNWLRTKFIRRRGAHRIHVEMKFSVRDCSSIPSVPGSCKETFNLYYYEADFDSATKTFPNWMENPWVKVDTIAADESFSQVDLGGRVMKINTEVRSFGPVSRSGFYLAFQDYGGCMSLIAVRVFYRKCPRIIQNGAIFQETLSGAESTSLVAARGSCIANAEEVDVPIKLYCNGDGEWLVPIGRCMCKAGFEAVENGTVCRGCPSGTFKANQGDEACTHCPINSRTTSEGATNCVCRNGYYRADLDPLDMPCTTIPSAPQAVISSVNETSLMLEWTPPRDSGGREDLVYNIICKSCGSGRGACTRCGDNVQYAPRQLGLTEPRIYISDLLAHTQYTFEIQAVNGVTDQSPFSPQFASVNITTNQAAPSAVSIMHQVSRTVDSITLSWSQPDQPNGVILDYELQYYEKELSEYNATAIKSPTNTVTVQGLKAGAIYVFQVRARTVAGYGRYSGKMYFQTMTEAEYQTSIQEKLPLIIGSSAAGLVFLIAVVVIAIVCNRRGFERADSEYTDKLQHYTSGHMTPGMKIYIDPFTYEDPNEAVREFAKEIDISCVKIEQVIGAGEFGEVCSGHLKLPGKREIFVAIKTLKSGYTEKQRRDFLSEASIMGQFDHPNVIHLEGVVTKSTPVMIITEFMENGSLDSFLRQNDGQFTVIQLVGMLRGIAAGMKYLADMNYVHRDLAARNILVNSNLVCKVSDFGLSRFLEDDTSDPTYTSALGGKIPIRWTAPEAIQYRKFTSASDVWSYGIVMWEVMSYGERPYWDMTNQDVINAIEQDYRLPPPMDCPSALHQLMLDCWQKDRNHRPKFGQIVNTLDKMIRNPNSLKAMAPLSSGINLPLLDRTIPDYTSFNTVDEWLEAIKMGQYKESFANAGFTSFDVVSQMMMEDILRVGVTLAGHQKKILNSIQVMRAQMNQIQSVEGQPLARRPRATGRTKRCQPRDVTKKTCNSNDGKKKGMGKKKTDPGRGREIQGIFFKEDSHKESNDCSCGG
# Chain of FGFR3 (P22607 whole entry, looked up): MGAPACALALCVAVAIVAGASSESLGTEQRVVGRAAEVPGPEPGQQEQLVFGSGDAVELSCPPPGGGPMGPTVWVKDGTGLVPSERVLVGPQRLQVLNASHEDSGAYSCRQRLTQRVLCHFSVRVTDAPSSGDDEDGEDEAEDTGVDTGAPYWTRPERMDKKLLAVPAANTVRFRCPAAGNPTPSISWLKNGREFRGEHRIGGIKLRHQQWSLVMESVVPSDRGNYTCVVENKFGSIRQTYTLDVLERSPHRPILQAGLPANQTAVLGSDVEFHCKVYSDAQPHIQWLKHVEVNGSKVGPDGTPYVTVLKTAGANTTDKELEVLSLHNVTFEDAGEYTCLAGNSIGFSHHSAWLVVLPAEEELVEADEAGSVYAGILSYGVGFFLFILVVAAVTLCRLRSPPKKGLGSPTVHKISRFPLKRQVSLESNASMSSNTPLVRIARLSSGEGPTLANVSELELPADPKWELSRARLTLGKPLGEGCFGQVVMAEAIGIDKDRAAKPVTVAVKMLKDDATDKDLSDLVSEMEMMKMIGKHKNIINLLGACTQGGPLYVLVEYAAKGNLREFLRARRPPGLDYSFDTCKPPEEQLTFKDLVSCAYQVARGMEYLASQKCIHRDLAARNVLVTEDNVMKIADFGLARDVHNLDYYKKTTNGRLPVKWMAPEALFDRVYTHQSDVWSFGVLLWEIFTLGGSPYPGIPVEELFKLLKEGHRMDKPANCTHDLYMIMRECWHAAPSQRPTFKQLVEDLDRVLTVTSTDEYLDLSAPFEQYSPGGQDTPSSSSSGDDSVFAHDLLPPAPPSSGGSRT
# Chain of Fes (P07332 whole entry, looked up): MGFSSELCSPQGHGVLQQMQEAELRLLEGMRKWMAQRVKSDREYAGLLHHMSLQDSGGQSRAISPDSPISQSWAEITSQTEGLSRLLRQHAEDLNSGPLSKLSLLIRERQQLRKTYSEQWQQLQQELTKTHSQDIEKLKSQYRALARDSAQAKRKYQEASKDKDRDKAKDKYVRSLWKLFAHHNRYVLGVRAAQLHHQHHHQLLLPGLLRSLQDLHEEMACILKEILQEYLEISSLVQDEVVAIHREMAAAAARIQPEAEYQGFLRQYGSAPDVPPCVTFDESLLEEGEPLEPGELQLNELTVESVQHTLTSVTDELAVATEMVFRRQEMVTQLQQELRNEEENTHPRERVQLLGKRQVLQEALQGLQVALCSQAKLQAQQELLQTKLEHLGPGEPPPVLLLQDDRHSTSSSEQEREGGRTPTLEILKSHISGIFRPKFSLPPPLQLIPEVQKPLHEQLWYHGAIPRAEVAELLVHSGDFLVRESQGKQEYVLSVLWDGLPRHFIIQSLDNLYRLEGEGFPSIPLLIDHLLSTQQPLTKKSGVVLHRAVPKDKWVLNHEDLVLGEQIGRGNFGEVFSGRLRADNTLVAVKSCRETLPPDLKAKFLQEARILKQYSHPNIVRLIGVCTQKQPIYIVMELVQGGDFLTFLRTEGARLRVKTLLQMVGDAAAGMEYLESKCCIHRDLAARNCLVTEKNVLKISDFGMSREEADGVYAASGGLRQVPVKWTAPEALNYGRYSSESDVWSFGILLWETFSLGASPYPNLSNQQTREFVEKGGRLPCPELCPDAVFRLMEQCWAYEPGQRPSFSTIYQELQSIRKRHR
# Chain of MERTK (Q12866 whole entry, looked up): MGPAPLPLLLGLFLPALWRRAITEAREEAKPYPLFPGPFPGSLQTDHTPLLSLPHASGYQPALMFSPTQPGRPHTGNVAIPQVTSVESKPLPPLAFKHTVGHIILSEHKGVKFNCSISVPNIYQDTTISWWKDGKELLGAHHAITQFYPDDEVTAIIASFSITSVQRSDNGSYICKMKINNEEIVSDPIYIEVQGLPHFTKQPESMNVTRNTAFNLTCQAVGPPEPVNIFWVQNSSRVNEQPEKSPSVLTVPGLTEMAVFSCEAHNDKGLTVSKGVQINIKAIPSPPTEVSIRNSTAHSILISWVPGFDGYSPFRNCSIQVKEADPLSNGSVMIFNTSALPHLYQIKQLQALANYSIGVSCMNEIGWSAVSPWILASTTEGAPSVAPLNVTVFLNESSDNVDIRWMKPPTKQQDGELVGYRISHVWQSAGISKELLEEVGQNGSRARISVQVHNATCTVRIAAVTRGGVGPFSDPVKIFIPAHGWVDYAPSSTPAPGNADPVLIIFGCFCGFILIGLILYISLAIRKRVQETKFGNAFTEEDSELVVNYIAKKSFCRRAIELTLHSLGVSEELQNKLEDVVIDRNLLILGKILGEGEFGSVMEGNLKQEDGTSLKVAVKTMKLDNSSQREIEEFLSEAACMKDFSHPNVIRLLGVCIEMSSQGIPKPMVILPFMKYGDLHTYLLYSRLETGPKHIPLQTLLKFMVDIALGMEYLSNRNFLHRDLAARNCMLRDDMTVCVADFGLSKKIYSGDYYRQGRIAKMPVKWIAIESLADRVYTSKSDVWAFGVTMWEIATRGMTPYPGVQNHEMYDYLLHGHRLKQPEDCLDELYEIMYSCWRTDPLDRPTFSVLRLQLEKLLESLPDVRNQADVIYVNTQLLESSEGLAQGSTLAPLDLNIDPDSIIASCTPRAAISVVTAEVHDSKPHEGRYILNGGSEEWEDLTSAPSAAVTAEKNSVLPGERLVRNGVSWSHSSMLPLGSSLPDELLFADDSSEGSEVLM
SH2 binding enrichment [14],SH2 binding enrichment [15],SH2 binding enrichment [16],Sequence,phosphorylation enrichment [1],phosphorylation enrichment [2],phosphorylation enrichment [3],phosphorylation enrichment [4],phosphorylation enrichment [5],phosphorylation enrichment [6],phosphorylation enrichment [7],phosphorylation enrichment [8],phosphorylation enrichment [9],phosphorylation enrichment [10],phosphorylation enrichment [11],phosphorylation enrichment [12],phosphorylation enrichment [13]
0.809,0.462,0.578,FQKNIYSEEPR [LMNA_Y211_L215P],0.773,0.438,0.443,0.478,0.582,0.454,0.871,1.02,0.763,0.717,1.73,0.477,1.54
0.769,0.441,0.459,KDLPNYNWNSF [KISS1_Y112],0.904,0.505,0.63,0.432,0.521,0.604,0.855,0.446,0.416,0.767,0.491,0.639,0.507
0.874,0.908,2.46,YSPCDYQPCLA [TNS1_Y798_Y796C],2.78,13.9,9.31,4.87,3.25,2.44,0.966,1.14,0.838,1.06,3.24,0.827,1.62
0.943,0.949,0.722,CSEEMYCLMLQ [RET_Y981_R982C],3.36,1.02,0.794,3.5,2.76,6.9,1.3,1.08,1.31,1.22,4.4,1.25,2.26
1.03,0.614,0.591,AQQPIYIRVEG [NLRP7_Y318_V319I],1.12,1.3,1.2,0.652,0.702,0.588,1.18,0.525,0.733,0.955,0.641,0.725,0.793
0.713,0.594,0.409,EDKSIYRRGAR [PRKCI_Y125],0.674,0.315,0.425,0.435,0.696,0.356,0.669,0.351,0.429,0.614,0.621,0.644,0.593
0.948,0.917,0.444,DEDYLCREELA [POR_Y575_Y575C],1.68,0.842,0.725,0.683,1.43,0.812,1.54,0.878,0.99,0.929,0.676,0.737,0.556
0.867,0.572,0.533,SGPRRYTIAAL [TTR_Y125],0.605,0.444,0.53,0.456,0.419,0.383,0.579,0.482,0.375,0.639,0.428,0.637,0.498
0.928,0.632,0.553,NQLNDYIFSFD [RARS1_Y516_R512Q],1.42,0.525,0.549,0.946,0.807,0.461,1.27,0.743,0.546,1.08,0.46,0.733,0.598
1.14,0.613,1.25,PKGWNYELPAT [PROM1_Y34_A31G],1,0.597,0.454,0.518,0.592,0.433,0.867,0.531,0.516,0.698,0.45,0.696,0.383
1.27,0.834,0.661,PRARTYCYKQE [KLHDC9_Y175_S171R],0.847,0.467,0.574,0.497,0.557,0.716,1.01,0.527,0.435,0.981,0.483,0.91,0.667
0.814,0.656,0.584,SVVVCYEPPEV [TP53_Y220_P219C],1.78,0.751,0.697,0.509,0.78,0.678,1.19,0.573,0.616,1.07,0.457,0.849,0.518
0.838,0.641,0.693,KMLEKYKERLN [TLK2_Y259],0.634,0.381,0.5,0.46,0.557,0.444,0.789,0.43,0.492,0.834,0.475,1.27,0.463
0.721,0.75,0.589,KSAAIYNPVIF [RHO_Y301_YF],0.757,0.559,0.519,0.567,0.557,16.1,0.939,5.56,8.01,0.634,4.6,1.11,4.71
0.925,0.615,0.841,LRGEDCGFSVD [PRKCI_Y430_Y430C],1.94,2.18,1.14,0.847,1.41,0.886,2.77,0.631,0.987,2.49,1.25,1.97,1.48
1.04,1.6,0.589,GQKTLYSFFSP [UNG_Y8],0.984,2.58,2.12,1.18,1.42,8.62,1.2,4.16,4.06,0.908,10.3,2.05,4.32
0.83,0.543,1.98,IQRSLYDRPAS [PDGFRA_Y762],0.699,0.488,0.479,0.489,0.469,0.988,0.643,0.613,1.59,0.577,0.689,0.541,0.458

# Further lines, the sequence ahead of its results:
Sequence,SH2 binding enrichment [14],SH2 binding enrichment [15],SH2 binding enrichment [16],phosphorylation enrichment [1],phosphorylation enrichment [2],phosphorylation enrichment [3],phosphorylation enrichment [4],phosphorylation enrichment [5],phosphorylation enrichment [6],phosphorylation enrichment [7],phosphorylation enrichment [8],phosphorylation enrichment [9],phosphorylation enrichment [10],phosphorylation enrichment [11],phosphorylation enrichment [12],phosphorylation enrichment [13]
EHTILYSNNST [KANSL1_Y223_T221I],0.845,0.71,0.691,0.715,0.456,0.454,0.461,0.468,0.732,0.662,0.437,0.43,0.488,0.5,0.581,0.547
SMAKYYASGIA [ACADSB_Y373_E376G],0.771,0.791,0.578,0.497,0.408,0.7,0.437,0.469,0.444,0.622,0.331,0.463,0.665,0.381,0.599,0.394
ISGGGYRACPA [FGB_Y71_R74C],0.958,0.715,0.533,0.915,0.51,0.404,0.469,0.52,0.495,0.818,0.44,0.432,0.61,0.409,0.58,0.361
TIWDSYTTNKV [GNB1_Y85_I80T],0.855,0.893,0.388,0.964,0.537,0.452,0.509,0.633,0.485,1.11,0.444,0.473,1.19,0.463,0.699,0.496
KHCEDYVFSYN [DSC1_Y846_C848F],0.806,0.595,0.552,2.06,0.855,0.719,2.41,1.98,0.511,1.31,0.576,0.521,1.08,0.489,0.778,1.77
KRLDGYVLEGW [IGSF9_Y656_R661W],0.844,0.819,2.36,0.712,0.48,0.484,0.542,0.511,0.506,0.835,0.484,0.453,0.651,0.381,0.532,0.418
NTSKMYIPHTD [EXPH5_Y782_D777N],0.897,0.68,0.386,0.663,0.35,0.423,0.415,0.523,0.469,0.609,0.45,0.462,0.562,0.462,0.532,0.474
KKARAYRPGIE [FLNA_Y287_G288R],0.761,0.606,0.469,0.499,0.289,0.417,0.299,0.357,0.31,0.45,0.338,0.323,0.565,0.371,0.455,0.449
GHLFAYNWISI [BEST1_Y227_D228N_YF],0.993,1.13,0.916,0.962,0.51,0.469,1.34,1.21,4.77,1.06,0.488,0.444,0.978,0.548,0.58,0.392
SSSAIYDNPNL [DCP1B_Y191],0.688,0.53,0.706,0.898,12.2,15.6,0.411,0.457,9.27,0.737,8.1,9.85,0.632,8.1,22.5,5.76
TTICKYITPME [GUCY2C_Y839_S840I],0.73,0.598,0.661,0.99,0.485,0.466,0.558,0.56,0.417,0.873,0.418,0.469,0.728,0.421,0.56,0.458
VNRSGYTLIRK [ATP6V0A2_Y688],0.56,0.814,1.74,0.64,0.333,0.444,0.315,0.452,0.366,0.672,0.533,0.429,0.429,0.386,0.568,0.43
LIQRNYKLTAQ [ALPK2_Y1975_A1978T],1.24,0.952,0.532,0.86,0.479,0.604,0.465,0.511,0.393,1.12,0.462,0.507,1.24,0.567,1.2,0.706
VDASYCGGRGV [ANTXR2_Y381_Y381C],0.62,0.331,0.382,0.712,0.373,0.28,0.405,0.463,0.48,0.63,0.676,0.342,0.573,0.559,0.519,0.476
QTLTDYDIRFF [CSNK2A1_Y131_YF],0.794,0.651,0.413,1.16,0.626,0.677,0.569,0.888,0.604,1.48,0.709,0.691,0.998,0.531,0.737,0.481
ESMLRYEVYGG [STOX1_Y607],0.819,0.554,0.929,1.29,0.758,0.685,0.528,0.702,0.523,1.42,0.666,0.712,1.3,0.506,0.744,0.905
